Measurements taken from patent US20240010753A1 (EPIMAB BIOTHERAPEUTICS HK, published 2024).
Changes are numbered by the printed parent chain. Values belong to the binder of their own block, whether it stands above or below them.

Key:
[1] = molecular target: T1, recombinant human ROR1-ECD protein (human, UniProt Q01973 30-406); assay: BLI (Octet RED96), antibody captured on anti-mouse IgG Fc sensors, ROR1-ECD in solution, 25 C, 1:1 fit
T1 construct: also called human ROR1 extracellular domain
Method: Briefly, Anti-Mouse IgG Fc Capture (AMC) Biosensors were used to capture purified anti-ROR1 antibodies. Sensors were then dipped into solutions containing recombinant human ROR1-ECD protein to detect target protein binding to the captured antibodies. Kinetics constants were determined by processing and fitting data to a 1:1 binding model using Fortebio analysis software. Shown below in Table 2 are the results obtained for ROR1-mAb004 in comparison with two previously described anti-ROR1 monoclonal antibodies, ROR1-Tab1 is clone R12 as described in WO2014167022, and ROR1-Tab2 is clone D10 as described in WO2012097313.

human ROR1 on cells [2] = molecular target: T2, human ROR1 on cells (human, UniProt Q01973 30-937); assay: flow cytometry on RPMI-8226 myeloma cells
T2 construct: whole, on cells; the cell line is named under assay; also called CHO-ROR1; CHOK1-ROR1
Method: (§1) Cell binding activity of anti-ROR1 antibodies were measured with human ROR1 transfected CHO cell line (CHO-ROR1) and ROR1-expressing myeloma cell line (RPMI8226). Briefly, 5×10⁵ cells were seeded into each well of a 96-well plate. Cells were centrifuged at 400 g for 5 minutes and supernatants were discarded. For each well, 100 μl of serially diluted antibodies were then added and mixed with the cells. After 40 minutes incubation at 4° C., plates were washed several times to remove excess antibodies. Secondary fluorochrome-conjugated goat anti-mouse IgG antibody was then added and incubated with cells at room temperature for 20 minutes. After another round of centrifugation and a washing step, cells were resuspended in FACS buffer for reading on a CytoFLEX Flow Cytometer (Beckman Coulter). Median Fluorescence Intensity (MFI) readouts were plotted against antibody concentration and analyzed with GraphPad Prism 6.0 software. The results shown in FIGS. 2A-B illustrate the binding activities of anti-ROR1 monoclonal antibodies ROR1-mAb004 and ROR1-Tab1 to ROR1 expressing cells. An irrelevant mIgG1 was used as negative control.

human ROR1 on cells [3] = molecular target: T2, human ROR1 on cells; assay: flow cytometry on human ROR1 transfected CHO cells (CHOK1-ROR1)
Method: as §1

[4] = molecular target: T1, recombinant human ROR1-ECD protein; assay: competition ELISA: biotinylated ROR1-ECD pre-mixed with the row's antibody; competitor coated on the plate: ROR1-Tab1
Method: (§2) The binding epitope of ROR1 antibodies were identified with a competition ELISA. Briefly, 96 well plates were coated with 1 ug/mL purified antibodies and incubated overnight at 4° C. After washing with PBS containing 0.05% Tween 20, plates were blocked with blocking buffer (PBS containing 0.05% Tween 20 and 2% BSA) at 37° C. for 2 hours. Biotinylated human ROR1-ECD protein pre-mixed with ROR1 antibody (sample) or irrelevant mouse IgG (baseline) was added into plate wells and incubated at 37° C. for 1 hour before being washed 3 times. Streptavidin-HRP (1:5000 dilution) was then added into each well and incubated at 37° C. for 1 hour before being washed another 3 times. Tetramethylbenzidine (TMB) chromogenic solution was added for color development for 5 minutes then the reaction was stopped with 1M HCl. Absorbance at 450 nm (OD₄₅₀) was measured on a microplate reader. The OD450baseline represents the level of human ROR1-ECD binding to ROR1 antibodies at absence of competition, while the difference between OD450baseline and OD450ₛₐₘₚₗₑ reflects the competition between the ROR1 antibody coated on plate and the antibody in solution. The inhibition percentage was calculated by following equation: […]

[5] = molecular target: T1, recombinant human ROR1-ECD protein; assay: ELISA, ROR1-ECD coated at 1 ug/mL
Method: The binding specificity and potency of anti-ROR1 antibodies were characterized by protein ELISA and flow cytometry analysis of cell surface binding. Briefly, binding properties of the anti-ROR1 antibodies were measured with ELISA as follows: recombinant ROR1-ECD protein was coated at 1 μg/mL on 96-well plates at 4° C. overnight. Plates were washed once with washing buffer (PBS containing 0.05% Tween 20) and blocked with ELISA blocking buffer (1% BSA in PBS containing 0.05% Tween 20) at room temperature for 2 hours. Anti-ROR1 antibodies were then added and incubated at 37° C. for 1 hour. Plates were washed three times with washing buffer. HRP labeled anti-mouse IgG secondary antibody (Sigma, Cat. #A0168) was added and the plates were incubated at 37° C. for 30 minutes then washed 5 times in washing buffer. 100 μl of tetramethylbenzidine (TMB) chromogenic solution was added to each well. Following color development, the reaction was stopped with 1 Normal HCl and absorbance at 450 nm was measured on a Varioskan™ LUX microplate reader (ThermoFisher Scientific). Binding signals were plotted against antibody concentration with GraphPad Prism 6.0 software and EC50s were calculated accordingly.

[6] = molecular target: T1, recombinant human ROR1-ECD protein; assay: competition ELISA: biotinylated ROR1-ECD pre-mixed with the row's antibody; competitor coated on the plate: ROR1-Tab2
Method: as §2

[7] = molecular target: T1, recombinant human ROR1-ECD protein; assay: competition ELISA: biotinylated ROR1-ECD pre-mixed with the row's antibody; competitor coated on the plate: ROR1-mAb004
Method: as §2

human ROR1 on cells [8] = molecular target: T2, human ROR1 on cells; assay: flow cytometry on A549 cells, MFI
Method: (§3) Briefly, 5×10⁵ cells were seeded into each well of a 96-well plate. Cells were centrifuged at 400 g for 5 minutes and supernatants were discarded. For each well, […] of serially diluted antibodies were then added and mixed with the cells. After 40 minutes of incubation at 4° C., plates were washed several times to remove excess antibodies. Secondary fluorochrome-conjugated goat anti-human IgG antibody was then added and incubated with cells at room temperature for 20 minutes. After another round of centrifugation and a washing step, cells were resuspended in FACS buffer for reading on a CytoFLEX Flow Cytometer (Beckman Coulter). Median Fluorescence Intensity (MFI) readouts were plotted against antibody concentration and analyzed with GraphPad Prism 6.0 software.

human ROR1 on cells [9] = molecular target: T2, human ROR1 on cells; assay: flow cytometry on RPMI8226 cells, internalization assay, 4°C control (coincides with 37°C + PAO)
Method: The binding internalization of humanized anti-ROR1 antibodies were characterized with ROR1-expressing myeloma cell line RPMI8226 with a method similar to that described previously in Example 1.4. Briefly, cells were harvested and resuspended in FACS buffer at density of 3 million per mL. Diluted antibodies were added to the tubes and incubated for 30 min at 4° C. After the first incubation, cells were washed three times with cold PBS to remove unbound antibody. Then, the cells of each antibody treatment were split into three groups, 4° C., 37° C. and 37° C.+PAO, respectively. Cells in the 37° C. […] After another round of centrifugation and washing step, cells were resuspended in FACS buffer for reading on a CytoFLEX Flow Cytometer (Beckman Coulter). An irrelevant mouse IgG control (MFIbackground) was calculated and used for background calibration. The difference between the MFI readout of “control” and that of “internalization” (ΔMFI) reflects the internalization of ROR1 antibodies, and such difference in relative to calibrated MFI of “control” reflects percentage of antibody internalization, which is calculated as follows and is summarized below in Table 15. […] The calculated antibody internalization percentages of HuROR-mAb004-1 and FIT1007-12B-17 were consistent with the results shown in Example 1.4, Table 4.

human ROR1 on cells [10] = molecular target: T2, human ROR1 on cells; assay: flow cytometry on NCI-H1975 cells, MFI
Method: as §3

human ROR1 on cells [11] = molecular target: T2, human ROR1 on cells; assay: flow cytometry on MDA-MB-231 cells, MFI
Method: as §3

human ROR1 on cells [12] = molecular target: T2, human ROR1 on cells; assay: flow cytometry on RPMI-8226 cells, MFI
Method: as §3

[13] = molecular target: T1, recombinant human ROR1-ECD protein; assay: BLI (Octet RED96), FIT-Ig captured on anti-hIgG Fc sensors, ROR1 ECD at 10 ug/ml; the reference itself
Method: (§4) The ROR1/CD3 FIT-Ig proteins were assayed for and ranked by dissociation rate constant (koff, “off-rate”) using an Octet®RED96 biolayer interferometry (Pall FortéBio LLC). Anti-hIgG Fc Capture (AHC) Biosensors (Pall) were first exposed to antibody at a concentration of 100 nM for 30 seconds to capture antibody, then dipped into running buffer (1× pH 7.2 PBS, 0.05% Tween 20, 0.1% BSA) for 60 seconds to check baseline. Sensors with captured antibody were dipped into recombinant human ROR1 ECD protein at 10 ug/ml for 5 minutes to measure association, followed by dipped into running buffer for 1200 seconds to measure dissociation. The association and dissociation curves were fitted to a 1:1 Langmuir binding model using ForteBio Data Analysis software (Pall). The off-rate ratios were calculated by the off-rate of antibody to that of FIT1007-12B. Lower ratio indicates slower dissociation of the antibody in comparison with the parental chimeric antibody FIT1007-12B.

[14] = molecular target: T1, recombinant human ROR1-ECD protein; assay: BLI (Octet), 6 ROR1 antigen concentrations, 3 fold diluted from 500 nM
Method: as §4
ROR1 binding affinity/kinetics of the humanized candidate FIT1007-12B-17 and its parental chimeric FIT-Ig FIT1007-12B were measured using the same method as described in Example 3. For each antibody, measurements were titrated by 6 antigen concentrations, i.e., 3 fold diluted from 500 nM. Binding kinetics of FIT1007-12B-18, MAT1007-12B-17 and MAT1007-12B-18 are similar to those of FIT1007-12B-17. These candidates share the same ROR1 binding Fab.

[15] = molecular target: T1, recombinant human ROR1-ECD protein; assay: BLI (Octet RED96), FIT-Ig captured on anti-hIgG Fc sensors, ROR1 ECD in solution
Method: as §4

T1 sequence (Q01973 30-406): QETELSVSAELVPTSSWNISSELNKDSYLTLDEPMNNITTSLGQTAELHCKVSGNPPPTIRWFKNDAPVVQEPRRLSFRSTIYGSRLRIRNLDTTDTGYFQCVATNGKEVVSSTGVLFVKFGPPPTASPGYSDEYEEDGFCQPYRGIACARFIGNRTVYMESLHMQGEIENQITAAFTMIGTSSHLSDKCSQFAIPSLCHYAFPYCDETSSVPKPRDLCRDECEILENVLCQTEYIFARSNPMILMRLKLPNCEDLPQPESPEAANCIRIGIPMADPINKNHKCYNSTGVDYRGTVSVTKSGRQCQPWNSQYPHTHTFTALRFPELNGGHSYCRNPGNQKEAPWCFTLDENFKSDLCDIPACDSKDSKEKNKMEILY
T2 sequence (Q01973 30-937): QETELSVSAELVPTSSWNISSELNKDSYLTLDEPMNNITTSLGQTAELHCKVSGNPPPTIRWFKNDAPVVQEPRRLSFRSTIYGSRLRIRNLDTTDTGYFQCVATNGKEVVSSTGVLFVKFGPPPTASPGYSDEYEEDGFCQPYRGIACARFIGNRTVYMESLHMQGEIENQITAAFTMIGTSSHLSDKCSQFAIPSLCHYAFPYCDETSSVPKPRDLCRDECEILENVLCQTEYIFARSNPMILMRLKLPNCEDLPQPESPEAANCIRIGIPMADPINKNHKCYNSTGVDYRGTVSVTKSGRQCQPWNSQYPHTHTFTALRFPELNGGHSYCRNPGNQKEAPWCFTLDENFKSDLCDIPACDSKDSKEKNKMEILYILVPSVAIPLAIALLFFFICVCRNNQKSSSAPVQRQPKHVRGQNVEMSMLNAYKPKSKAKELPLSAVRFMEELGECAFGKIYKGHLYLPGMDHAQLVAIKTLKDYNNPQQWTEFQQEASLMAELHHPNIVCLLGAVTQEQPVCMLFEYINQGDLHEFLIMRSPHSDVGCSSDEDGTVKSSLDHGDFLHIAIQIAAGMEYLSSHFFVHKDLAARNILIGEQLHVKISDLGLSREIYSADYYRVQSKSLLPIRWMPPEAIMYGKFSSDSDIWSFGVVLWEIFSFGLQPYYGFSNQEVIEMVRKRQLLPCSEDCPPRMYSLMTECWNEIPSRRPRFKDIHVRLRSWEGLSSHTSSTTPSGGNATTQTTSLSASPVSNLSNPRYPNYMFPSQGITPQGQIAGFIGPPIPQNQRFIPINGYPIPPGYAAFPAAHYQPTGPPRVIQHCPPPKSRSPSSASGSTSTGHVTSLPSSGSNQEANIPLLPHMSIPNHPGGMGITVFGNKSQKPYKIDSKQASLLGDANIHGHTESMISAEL

B1: ROR1-Tab1 (antibody, V domains shown)
VH: QEQLVESGGRLVTPGGSLTLSCKASGFDFSAYYMSWVRQAPGKGLEWIATIYPSSGKTYYATWVNGRFTISSDNAQNTVDLQMNSLTAADRATYFCARDSYADDGALFNIWGPGTLVTISS
VL: ELVLTQSPSVSAALGSPAKITCTLSSAHKTDTIDWYQQLQGEAPRYLMQVQSDGSYTKRPGVPDRFSGSSSGADRYLIIPSVQADDEADYYCGADYIGGYVFGGGTQLTVTG
notes: also called clone R12; R12 as described in WO2014167022
Kd [1]: 1.28 nM
koff [1]: 0.00066 s⁻¹
kon [1]: 517000 M⁻¹ s⁻¹
EC50 (human ROR1 on cells [2]): 0.128 nM
EC50 (human ROR1 on cells [3]): 0.774 nM
Inhibition % [4]: 95%
EC50 [5]: 0.025 nM
Inhibition % [6]: -84%
Inhibition % [7]: -54%

B2: HuROR1-mAb004-1 (antibody, V domains shown)
VH: EVQLVQSGAEVKKPGSSVKVSCKASGYTFSRSWMNWVRQAPGQGLEWMGRIYPGNADIKYNANFKGRVTITADKSTSTAYMELSSLRSEDTAVYYCAHIYYDFYYALDYWGQGTTVTVSS
VL: DIQMTQSPSSLSASVGDRVTITCKASQDINKYITWYQQKPGKAPKLLIYYTSTLQPGVPSRFSGSGSGTDYTFTISSLQPEDIATYYCLQYDSLLWTFGGGTKVEIK
notes: only the variable domains are tied to it; also called HuROR-mAb004-1; parental anti-ROR1 monoclonal IgG1 antibody
EC50 (read off the curve) (human ROR1 on cells [8]): ~1 nM
EC50 (read off the curve) (human ROR1 on cells [9]): ~1 nM
EC50 (read off the curve) (human ROR1 on cells [10]): ~2 nM
EC50 (read off the curve) (human ROR1 on cells [11]): ~2 nM
EC50 (read off the curve) (human ROR1 on cells [12]): ~1 nM

B5: ROR1-mAb004 (antibody, V domains shown)
VH: QVQLQQSGPELVKPGASVKISCKASGYAFSRSWMNWVKQRPEKGLEWIGRIYPGNGDIKYNGNFKGKATLTADKSSSTAYMQLSSLTSEDSAVYFCAHIYYDFYYALDYWGQGTSVTVSS
VL: DIQLTQSPSSLSASLGGKVTITCKASQDINKYITWYQHKPGKGPRLLIHYTSTLQPGIPSRFSGSGSGRDYSFSISNLEPEDIATYYCLQYDSLLWTFGGGTKLEIK
notes: Mouse hybridoma monoclonal antibody; captured and detected through mouse IgG Fc
Kd [1]: 18.5 nM
koff [1]: 0.00171 s⁻¹
kon [1]: 92500 M⁻¹ s⁻¹
EC50 (human ROR1 on cells [2]): 0.983 nM
EC50 (human ROR1 on cells [3]): 2.31 nM
Inhibition % [4]: -22%
EC50 [5]: 0.022 nM
Inhibition % [6]: 92%
Inhibition % [7]: 93%

Next, values leading:

Off-rate Ratio [13]: 100%
Kd [14]: 5.67 nM
koff [14]: 0.00103 s⁻¹
kon [14]: 182000 M⁻¹ s⁻¹
B3: FIT1007-12B (bispecific antibody, human IgG1, kappa, L234A L235A)
chain 1: not shown
chain 2: QVQLQQSGPELVKPGASVKISCKASGYAFSRSWMNWVKQRPEKGLEWIGRIYPGNGDIKYNGNFKGKATLTADKSSSTAYMQLSSLTSEDSAVYFCAHIYYDFYYALDYWGQGTSVTVSSASTKGPSVFPLAPSSKSTSGGTAALGCLVKDYFPEPVTVSWNSGALTSGVHTFPAVLQSSGLYSLSSVVTVPSSSLGTQTYICNVNHKPSNTKVDKKVEPKSC
chain 3: not shown
notes: also called parental chimeric FIT-Ig; chimeric antibody (FIT1007-12B)

binding result [15]: no binding (tested: 10 ug/ml)
B4: FIT1007-12B-15 (bispecific antibody, human IgG1, kappa, L234A L235A)
chain 1: not shown
chain 2: B3 chain 2 with G56A, N61Q
chain 3: not shown
notes: Chimeric ROR1 arm with CDR-H2 point mutations (AQ); ROR1xCD3 FIT-Ig, no linkers
